# In patent US9493781B2, “Synthetic brassica-derived chloroplast transit peptides” (DOW AGROSCIENCES LLC, priority 2012, dated 2016):
# B1: TraP8: chimeric chloroplast transit peptide SEQ ID NO:3; N-terminus from Brassica napus EPSPS CTP, C-terminus from Brassica rapa (protein)
# chain: MAQSSRICHGVQNPCVIISNLSKSNQNKSPFSVSLKTHQQQRRAYQISSWGLKKSNNGSVIRPVK
# modifications: TraP8 chimeric chloroplast transit peptide
# notes: N-terminus from Brassica napus EPSPS CTP, C-terminus from Brassica rapa
# Experiments:
# [1] = tested on: tobacco (cv. Petit Havana); test: Postemergence glyphosate tolerance of dgt-28 transformed T1 and T2 tobacco; assay type: in vivo; conditions: 14 DAT, 2240 g ae/ha glyphosate (DURANGO DMA)
# Text: Postemergence herbicide tolerance in dgt-28 transformed T1 tobacco. T1 resistant plants from each event used in the progeny testing were given unique identifiers and sampled for zygosity analyses of the dgt-28 gene. Zygosity data were used to assign 2 hemizygous and 2 homozygous replicates to each rate of glyphosate applied allowing for a total of 4 replicates per treatment. These plants were compared against wildtype Petite havana tobacco. All plants were sprayed with a track sprayer set at 187 L/ha. The plants were sprayed from a range of 560-4480 g ae/ha DURANGO DMA™. All applications were formulated in water with the addition of 2% w/v ammonium sulfate (AMS). Plants were evaluated at 7 and 14 days after treatment. Plants were assigned an injury rating with respect to overall visual stunting, chlorosis, and necrosis. The T1 generation is segregating, so some variable response is expected due to difference in zygosity.
# Rates of DURANGO DMA™ ranging from 420-3360 g ae/ha glyphosate were applied to 2-3 leaf tobacco as previously described.
# YFP protein = test: Western blot of infiltrated tobacco leaves (YFP expression, transit peptide processing); set-up: species or system Nicotiana benthamiana; conditions: infiltrated tobacco leaf tissue
# Experimental: Samples of the infiltrated tobacco plants were assayed via Western blotting. Leaf punches were collected and subjected to bead-milling. About 100-200 mg of leaf material was mixed with 2 BBs (steel balls) (Daisy; Rogers, Ark.) and […] of PBST for 3 minutes in a Kleco™ bead mill. The samples were then spun down in a centrifuge at 14,000×g at 4° C. The supernatant was removed and either analyzed directly via Western blot or immunoprecipitated. The immunoprecipitations were performed using the Pierce Direct IP Kit™ (Thermo Scientific; Rockford, Ill.) following the manufacturer's protocol. Approximately, 50 μg of anti-YFP was bound to the resin. The samples were incubated with the resin overnight at 4° C. Next, the samples were washed and eluted the following morning and prepped for analysis by combining equal volumes of 2×8M Urea sample buffer and then boiling the samples for 5 minutes. The boiled samples were run on a 4-12% SDS-Bis Tris gel in MOPS buffer for 40 minutes. The gel was then blotted using the Invitrogen iBlot™ (Life Technologies; Carlsbad, Calif.) following the manufacturer's protocol. The blotted membrane was blocked for 10 minutes using 5% non-fat dry milk in PBS-Tween solution. The membrane was probed with the primary antibody (monoclonal anti-GFP in rabbit) used at a 1:1000 dilution in the 5% non-fat dry milk in PBS-Tween solution for 1 hour. […]
molecule,measurement,setting,value
B1,% Injury Ave,[1],9.3%
same,Processing (cleavage) of transit peptide from YFP by Western blot,YFP protein,processed
